Experimental data from PMC7610479.

Key:
[1] = biological target: Survival Motor Neuron (SMN) protein, recombinant (UniProt Q16637); test: SPR
[2] = biological target: recombinant SMN (Survival Motor Neuron protein) (UniProt Q16637); test: SPR

Substance | Kd [1] [pM] | Kd [2] [pM] | koff [2] [s⁻¹] | kon [2] [M⁻¹ s⁻¹]
purified SMN-free 80S ribosomes from NSC-34 cells depleted from SMN (from UniProt P61255 1-145) (complex) | 10 | – | – | –
purified SMN-free 80S ribosomes from NSC-34 cells depleted of SMN (complex) | – | 9.8 | 9.4e-05 | 9.7e+06
